From patent US20060193829A1 come the findings set out here.

Positions of bridges follow the written chain, without caps; N, C: chain ends. No end group written: not given here. *: point of attachment. NHNH2 = NN*

B1: TN8 isolate 04 (SEQ ID NO: 12) (peptide)
peptide: HPCGSWLHPCAA
B2: TN9/1 isolate … (SEQ ID NO: 75) (peptide)
peptide: FCWVFNWVHCD
B3: TN9/1 isolate … (SEQ ID NO: 77) (peptide)
peptide: FCWVFQFRHCH
B4: TN8 isolate 12 (SEQ ID NO: 17) (peptide)
peptide: HLCFAWFRPCDA
B5: TN8 isolate 02 (SEQ ID NO: 14) (peptide)
peptide: HPCGSWFRPCFH
B6: TN7 isolate A08 (peptide)
peptide: FGCSWLFPCPF
B7: TN8 isolate 11/G10 (SEQ ID NO: 21) (peptide)
peptide: HRCGSWLHPCLA
B8: TN8 isolate 07 (SEQ ID NO: 15) (peptide)
peptide: HACGSWFRPCHA
B9: TN8 isolate 02 (SEQ ID NO: 13) (peptide)
peptide: HPCGSWFNPCAH
B10: TN9 isolate 12 (SEQ ID NO: 28) (peptide)
peptide: FCWVFPFNHCS
B11: TN9 isolate 02 (SEQ ID NO: 27) (peptide)
peptide: FCWVFPFNHCD
B12: TN9 isolate 06 (SEQ ID NO: 30) (peptide)
peptide: FCWVFPFHHCF
B13: TN9 isolate 01 (SEQ ID NO: 31) (peptide)
peptide: FCHVFNFVHCS
B14: TN8 isolate 10 (SEQ ID NO: 10) (peptide)
peptide: HPCGSWLRPCLH
B15: TN8 isolate 02 (SEQ ID NO: 16) (peptide)
peptide: HLCGAWFRPCDA
B16: TN7 isolate A06 (peptide)
peptide: HSCGSWLFPCFA
B17: TN9/1 isolate … (SEQ ID NO: 71) (peptide)
peptide: FCWVFAFDHCH
modifications: not fully specified (bridges); cysteine pairing not given here
B18: TN8 isolate 08 (SEQ ID NO: 20) (peptide)
peptide: HPCGAWLRPCYN
B19: TN9 isolate 03 (SEQ ID NO: 26) (peptide)
peptide: FCWVFNFSHCS
B20: TN7 isolate C5/G10 (peptide)
peptide: RLCSWVSPCSA
B21: TN7 isolate D04 (peptide)
peptide: RLCSWISPCSA
B22: TN9 isolate 09 (SEQ ID NO: 29) (peptide)
peptide: FCWVFPFQHCA
B23: TN7 isolate D03 (peptide)
peptide: PHCNWLFPCSL
B24: TN9 isolate 11 (SEQ ID NO: 32) (peptide)
peptide: FCHVFPFLHCD
B25: TN9 isolate 01 (SEQ ID NO: 24) (peptide)
peptide: FCHVFHFSHCD
B26: TN9 isolate 02 (SEQ ID NO: 23) (peptide)
peptide: FCWVHPFAHCL
B27: TN8 isolate 01 (SEQ ID NO: 19) (peptide)
peptide: HPCGAWFNPCPR
B28: TN8 isolate 01 (SEQ ID NO: 18) (peptide)
peptide: HGCGAWFRPCHA
B29: TN8 isolate 05 (SEQ ID NO: 11) (peptide)
peptide: RGCGSWLRPCLD
B30: TN7 isolate A09 (peptide)
peptide: FHCIGVWFCLH
B31: Affinity ligand CS-456 (peptide)
peptide: AEGTGDFGCSWLFPCPFDPGPEGGGS-NHNH2
modifications: disulfide 9-15 (inferred)
B32: Affinity ligand CS-454 (peptide)
peptide: AEGTGDHLCGAWFRPCDADPGPEGGGS-NHNH2
modifications: disulfide 9-16 (inferred)
B33: Affinity ligand CS-459 (peptide)
peptide: AEGTGDFCWVFPFQHCADPGPEGGGS-NHNH2
modifications: disulfide 8-16 (inferred)
B34: Affinity ligand CS-460 (peptide)
peptide: AEGTGDFCWVFPFHHCFDPGPEGGGS-NHNH2
modifications: disulfide 8-16 (inferred)
B35: Affinity ligand CS-453 (peptide)
peptide: AEGTGDHPCGSWLRPCLHDPGPEGGGS-NHNH2
modifications: disulfide 9-16 (inferred)
B36: Affinity ligand CS-455 (peptide)
peptide: AEGTGDFHCIGVWFCLHDPGPEGGGS-NHNH2
modifications: disulfide 9-15 (inferred)

REFACTO® (recombinant factor VIII-like polypeptide consisting of amino acids 1-743 and 1638 through 2332 of human factor VIII) (human), sequence (P00451 20-762, chain 1 of 2): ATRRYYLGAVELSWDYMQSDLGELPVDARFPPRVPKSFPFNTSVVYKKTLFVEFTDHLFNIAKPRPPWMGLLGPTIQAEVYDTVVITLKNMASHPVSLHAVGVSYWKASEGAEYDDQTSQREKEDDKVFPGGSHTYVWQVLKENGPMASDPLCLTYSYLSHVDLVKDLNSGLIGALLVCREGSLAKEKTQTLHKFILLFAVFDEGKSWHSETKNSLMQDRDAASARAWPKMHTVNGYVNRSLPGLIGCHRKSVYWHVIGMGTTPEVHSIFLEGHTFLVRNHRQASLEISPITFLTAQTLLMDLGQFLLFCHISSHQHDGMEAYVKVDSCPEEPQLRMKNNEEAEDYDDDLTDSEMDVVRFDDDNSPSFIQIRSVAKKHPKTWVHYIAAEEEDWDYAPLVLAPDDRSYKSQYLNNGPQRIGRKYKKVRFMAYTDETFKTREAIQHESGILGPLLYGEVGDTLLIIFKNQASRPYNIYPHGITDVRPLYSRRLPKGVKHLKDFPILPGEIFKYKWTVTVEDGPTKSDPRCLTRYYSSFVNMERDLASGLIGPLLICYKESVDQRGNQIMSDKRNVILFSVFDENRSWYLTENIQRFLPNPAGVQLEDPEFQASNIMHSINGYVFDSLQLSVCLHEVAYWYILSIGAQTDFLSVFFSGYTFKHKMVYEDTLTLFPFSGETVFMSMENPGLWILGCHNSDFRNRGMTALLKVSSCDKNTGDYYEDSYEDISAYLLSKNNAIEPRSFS
REFACTO® (recombinant factor VIII-like polypeptide consisting of amino acids 1-743 and 1638 through 2332 of human factor VIII) (human), sequence (P00451 1657-2351, chain 2 of 2): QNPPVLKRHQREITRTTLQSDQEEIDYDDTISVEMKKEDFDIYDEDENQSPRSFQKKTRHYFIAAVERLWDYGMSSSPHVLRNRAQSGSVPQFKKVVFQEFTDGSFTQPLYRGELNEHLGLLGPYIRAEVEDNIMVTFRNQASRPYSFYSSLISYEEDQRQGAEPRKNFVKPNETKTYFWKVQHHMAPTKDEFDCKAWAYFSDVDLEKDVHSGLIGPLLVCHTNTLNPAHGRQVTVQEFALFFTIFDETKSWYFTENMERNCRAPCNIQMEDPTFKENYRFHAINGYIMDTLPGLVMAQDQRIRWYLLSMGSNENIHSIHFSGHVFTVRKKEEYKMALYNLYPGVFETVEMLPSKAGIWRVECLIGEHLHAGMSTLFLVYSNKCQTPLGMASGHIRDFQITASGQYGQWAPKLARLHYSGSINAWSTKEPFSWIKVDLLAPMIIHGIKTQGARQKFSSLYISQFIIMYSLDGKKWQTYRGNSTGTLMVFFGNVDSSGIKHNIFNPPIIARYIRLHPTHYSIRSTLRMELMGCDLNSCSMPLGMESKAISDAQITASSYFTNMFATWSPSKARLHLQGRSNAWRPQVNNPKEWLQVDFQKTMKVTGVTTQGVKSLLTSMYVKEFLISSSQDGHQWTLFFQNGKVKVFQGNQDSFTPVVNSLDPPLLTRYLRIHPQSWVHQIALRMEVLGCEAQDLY

One experiment has as its target REFACTO® (recombinant factor VIII-like polypeptide consisting of amino acids 1-743 and 1638 through 2332 of human factor VIII) (human) (UniProt P00451). The experiment in a line: phage ELISA, with target against without target. For orientation: An ELISA detects its analyte on a solid surface through an enzyme-linked reagent.
As for B1, the R (ratio of the ELISA score with target present to the ELISA score without target) was 6.
On to B2, for which the R (ratio of the ELISA score with target present to the ELISA score without target) worked out at 14.
As to B3, the R (ratio of the ELISA score with target present to the ELISA score without target) worked out at 8.
Regarding B4, the R (ratio of the ELISA score with target present to the ELISA score without target) was 8.
Consider B5, for which the R (ratio of the ELISA score with target present to the ELISA score without target) was 16.
As to B6, the R (ratio of the ELISA score with target present to the ELISA score without target) came out at 8.
As to B7, the R (ratio of the ELISA score with target present to the ELISA score without target) turned out to be 6.
Take B8: the R (ratio of the ELISA score with target present to the ELISA score without target) is 6.
B9: the R (ratio of the ELISA score with target present to the ELISA score without target) turned out to be 8.
Regarding B10, the R (ratio of the ELISA score with target present to the ELISA score without target) was 18.
As for B11, the R (ratio of the ELISA score with target present to the ELISA score without target) amounted to 8.
Consider B12, for which the R (ratio of the ELISA score with target present to the ELISA score without target) was 6.
Still for that read-out and setting: for B13 the value was 8.
For B14, the R (ratio of the ELISA score with target present to the ELISA score without target) was 16.
Turning to B15, the R (ratio of the ELISA score with target present to the ELISA score without target) worked out at 6.
On the same count and under the same terms, as for B16, the figure is 10.
As for B17, the R (ratio of the ELISA score with target present to the ELISA score without target) turned out to be 24.
Turning to B18, the R (ratio of the ELISA score with target present to the ELISA score without target) amounted to 20.
With B19, the R (ratio of the ELISA score with target present to the ELISA score without target) came to 24.
Still for that read-out and setting: as for B20, the figure is 10; as for B21, 6.
For the molecule B22, the R (ratio of the ELISA score with target present to the ELISA score without target) was determined as 24.

For another experiment the target is unchanged. The experiment in a line: phage ELISA, phage isolate on factor VIII target, anti-M13-HRP.
B23: the ELISA signal was 0.2 OD630.
Regarding B1, the ELISA signal worked out at 0.3 OD630.
Turning to B4, the ELISA signal was determined as 0.4 OD630.
For B24, the ELISA signal was found to be 0.2 OD630.
As to B5, the ELISA signal came to 0.7 OD630.
As for B6, the ELISA signal is 0.4 OD630.
As for B7, the ELISA signal stood at 0.3 OD630.
Consider B8, for which the ELISA signal amounted to 0.4 OD630.
Still for that read-out and setting: as for B25, the figure is 0.2 OD630.
As for B9, the ELISA signal turned out to be 0.3 OD630.
Take B10: the ELISA signal was found to be 1 OD630.
In the case of B11, the ELISA signal was found to be 0.4 OD630.
For the molecule B26, the ELISA signal came out at 0.2 OD630.
As for B27, the ELISA signal worked out at 0.2 OD630.
On to B28, for which the ELISA signal turned out to be 0.2 OD630.
With B12, the ELISA signal worked out at 0.3 OD630.
Turning to B13, the ELISA signal was found to be 0.5 OD630.
Take B14: the ELISA signal is 1 OD630.
Take B15: the ELISA signal was 0.4 OD630.
The same measure, in the same setting: for B16 the value was 0.5 OD630; for B18, 1 OD630.
B19: the ELISA signal amounted to 1.1 OD630.
As for B20, the ELISA signal amounted to 0.5 OD630.
With B21, the ELISA signal worked out at 0.3 OD630.
In the case of B22, the ELISA signal stood at 1.1 OD630.
For B29, the ELISA signal is 0.2 OD630.
Regarding B30, the ELISA signal is 0.1 OD630.

For the next experiment the target is unchanged. As to the kind of experiment: batch binding to peptide beads; target in fraction by sandwich ELISA.
On to B31, for which the % of Input Recovered in Eluate was found to be 24%, the % of Input Recovered in Unbound is 47% and the % of Input Recovered in Wash worked out at 20%.
In the same order, the values of B32 are 49%, 24% and 12%.

The target in the next experiment is native human factor VIII (nhfVIII) (human) (UniProt P00451). As to the kind of experiment: batch binding to regenerated peptide beads; target in fraction by sandwich ELISA.
native human factor VIII (nhfVIII) (human), sequence (P00451 20-2351): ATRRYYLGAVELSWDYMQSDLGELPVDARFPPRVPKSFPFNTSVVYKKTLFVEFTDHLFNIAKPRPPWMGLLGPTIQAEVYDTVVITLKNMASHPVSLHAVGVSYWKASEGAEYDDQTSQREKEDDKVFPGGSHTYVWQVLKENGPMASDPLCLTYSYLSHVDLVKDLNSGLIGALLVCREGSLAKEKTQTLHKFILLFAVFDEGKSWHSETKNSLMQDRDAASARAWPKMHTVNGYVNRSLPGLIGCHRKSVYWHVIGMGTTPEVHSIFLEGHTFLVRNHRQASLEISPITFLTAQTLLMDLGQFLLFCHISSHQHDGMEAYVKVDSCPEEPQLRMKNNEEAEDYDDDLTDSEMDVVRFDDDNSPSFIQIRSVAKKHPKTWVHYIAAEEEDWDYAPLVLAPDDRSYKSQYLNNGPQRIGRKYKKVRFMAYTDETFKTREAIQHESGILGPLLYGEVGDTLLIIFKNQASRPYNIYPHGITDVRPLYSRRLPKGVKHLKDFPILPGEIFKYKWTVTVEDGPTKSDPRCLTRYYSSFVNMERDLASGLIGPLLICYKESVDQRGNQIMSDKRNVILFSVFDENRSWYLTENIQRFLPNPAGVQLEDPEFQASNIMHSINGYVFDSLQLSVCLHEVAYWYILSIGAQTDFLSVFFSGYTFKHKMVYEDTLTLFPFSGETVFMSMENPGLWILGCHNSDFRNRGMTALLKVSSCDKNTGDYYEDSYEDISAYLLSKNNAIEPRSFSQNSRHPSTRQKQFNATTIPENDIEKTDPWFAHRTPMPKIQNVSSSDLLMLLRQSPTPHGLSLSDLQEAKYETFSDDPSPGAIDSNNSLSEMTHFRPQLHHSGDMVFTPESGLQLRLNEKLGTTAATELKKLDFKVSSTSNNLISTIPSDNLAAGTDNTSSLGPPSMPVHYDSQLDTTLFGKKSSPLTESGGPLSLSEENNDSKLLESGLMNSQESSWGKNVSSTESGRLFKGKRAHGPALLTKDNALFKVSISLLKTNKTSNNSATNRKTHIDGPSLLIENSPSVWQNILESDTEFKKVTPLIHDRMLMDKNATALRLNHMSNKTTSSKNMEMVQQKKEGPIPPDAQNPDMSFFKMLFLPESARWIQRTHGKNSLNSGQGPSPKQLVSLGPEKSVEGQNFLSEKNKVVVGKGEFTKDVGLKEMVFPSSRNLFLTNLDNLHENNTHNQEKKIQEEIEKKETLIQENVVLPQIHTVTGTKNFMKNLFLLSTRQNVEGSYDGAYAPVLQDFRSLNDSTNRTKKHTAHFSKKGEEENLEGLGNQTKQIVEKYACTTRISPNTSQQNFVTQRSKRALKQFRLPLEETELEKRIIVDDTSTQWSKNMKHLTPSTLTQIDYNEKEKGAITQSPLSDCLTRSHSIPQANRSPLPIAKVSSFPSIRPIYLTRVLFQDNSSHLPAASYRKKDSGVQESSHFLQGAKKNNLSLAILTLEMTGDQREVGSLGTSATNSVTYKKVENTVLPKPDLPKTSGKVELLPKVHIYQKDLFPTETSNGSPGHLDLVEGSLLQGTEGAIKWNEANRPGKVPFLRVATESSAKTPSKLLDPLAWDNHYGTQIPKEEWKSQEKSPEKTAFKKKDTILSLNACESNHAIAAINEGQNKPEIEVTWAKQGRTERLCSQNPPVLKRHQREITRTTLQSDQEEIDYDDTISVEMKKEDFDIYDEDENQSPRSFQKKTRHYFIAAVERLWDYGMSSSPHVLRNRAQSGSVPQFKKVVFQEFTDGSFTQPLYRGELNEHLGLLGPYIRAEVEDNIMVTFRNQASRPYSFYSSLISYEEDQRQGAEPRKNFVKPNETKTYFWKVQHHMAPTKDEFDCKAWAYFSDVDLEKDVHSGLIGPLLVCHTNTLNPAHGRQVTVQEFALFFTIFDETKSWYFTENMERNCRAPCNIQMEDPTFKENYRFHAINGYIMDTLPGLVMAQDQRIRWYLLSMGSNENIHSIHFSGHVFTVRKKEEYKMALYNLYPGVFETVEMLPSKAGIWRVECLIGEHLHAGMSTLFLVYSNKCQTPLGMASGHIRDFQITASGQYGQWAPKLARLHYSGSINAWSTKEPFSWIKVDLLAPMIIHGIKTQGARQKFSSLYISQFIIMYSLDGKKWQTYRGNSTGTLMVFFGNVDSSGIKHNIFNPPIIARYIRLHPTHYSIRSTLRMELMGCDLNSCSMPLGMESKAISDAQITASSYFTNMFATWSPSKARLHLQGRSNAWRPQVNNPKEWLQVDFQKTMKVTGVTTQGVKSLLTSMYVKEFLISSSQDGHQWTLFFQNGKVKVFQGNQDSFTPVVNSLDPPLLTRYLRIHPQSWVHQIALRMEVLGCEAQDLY
In turn, B31 registered a % of Total Recovered in Eluate of 16%, a % of Total Recovered in Unbound of 70% and a % of Total Recovered in Wash of 14%.
B32 showed a % of Total Recovered in Eluate of 21%, a % of Total Recovered in Unbound of 67% and a % of Total Recovered in Wash of 12%.

Another experiment has as its target REFACTO® (recombinant factor VIII-like polypeptide consisting of amino acids 1-743 and 1638 through 2332 of human factor VIII) (human) (UniProt P00451). As to the kind of experiment: affinity column, peptide on Toyopearl Formyl 650-M; target in fraction by RP-HPLC.
Regarding B31, the % recovery, Elution A was determined as 44.8%; the % recovery, Elution B amounted to 0%; the % recovery, Flow came to 3.4%; the % recovery, pH2 came to 0%.
For the molecule B33, the % recovery, Elution A came out at 42.1%; the % recovery, Elution B amounted to 0%; the % recovery, Flow stood at 1.6%; the % recovery, pH2 stood at 0%.
Take B32: the % recovery, Elution A came out at 45.1%; the % recovery, Elution B is 0%; the % recovery, Flow worked out at 2.5%; the % recovery, pH2 was 0%.
Consider B34, for which the % recovery, Elution A is 28.8%; the % recovery, Elution B was 0%; the % recovery, Flow turned out to be 24.6%; the % recovery, pH2 amounted to 0%.
Consider B35, for which the % recovery, Elution A worked out at 43.2%; the % recovery, Elution B was 0%; the % recovery, Flow was determined as 0%; the % recovery, pH2 worked out at 0%.
On to B36, for which the % recovery, Elution A was found to be 1.4%; the % recovery, Elution B is 0%; the % recovery, Flow worked out at 65.8%; the % recovery, pH2 was 0%.

The next experiment has the same target. The experiment in a line: affinity column, peptide on Toyopearl Formyl 650-M; target in fraction by activity assay.
Regarding B31, the % recovery, Elution A came to 43% and the % recovery, Flow amounted to 4.8%.
Turning to B33, the % recovery, Elution A came to 31.2% and the % recovery, Flow was determined as 6.4%.
In the same order, the values of B32 are 42.4% and 2.2%.
As for B34, the % recovery, Elution A was 0% and the % recovery, Flow was 28.4%.
Take B35: the % recovery, Elution A came to 26.4% and the % recovery, Flow was found to be 0%.
For B36, the % recovery, Elution A is 1.3% and the % recovery, Flow is 61.6%.
